# Measured values as given in the DeepSol protein solubility set.
# Experiment: soluble on expression in E. coli; label from the status in PepcDB or PDB records
row,Sequence,soluble on expression in E. coli
1,MAHHHHHHMNFLGGSLRSGGGHRREKGFSAKNKVQQYHGDGSESIVLAGRPFRVLQKISDVPPPYMVTRQRSTKYGEGGSSYVYLVENTSHLPEFPRHLALKRSFFGVDQVMEAHKEVEIVSRIEDKNIVCVYHSEISRSEGRLGVSIAMEYCSNNLYHRIRSSAGTGIVTRLTEAEICHVMFAVTSAVGYLHAQQPPITHRDIRPENILINNKHAGPTAYKLTNFGNATTEAYQCETREEANMAIADIQMHTNPAFRAPEMADPWSKKRICEKTDMWSMGVLLYYMMYMSLPFDPSTTIVKDWALTFPSEATASYTPSLRVITEHLLDPDPCSRWDVFALINYMRFDEDCSRHLGTFCFTKTEWPEGWEEHDVKVLGRTPPPKAPPVSYNEPGHEQLDSRGLRGQERVHGHTNGHQPPDDRGNGRDSAVVDGAAVQEAMIVLGGDPADDDPAVAKYRHQIIMVQQEAWRRAKAAAGLRDSPPTEPQESSAAPAPTRANNEAQKDVFDDLFASASPTVFPTSQASPAMGPSAPPATHQPPEKDVFSASDLFSTSAPQLDPSYPVMNTYGQAPQQMAMGGWGSGAPVMGSGGYPMQQPQNQQQAPWGYGVSNANNYAPPLPPQQQQQQQLQPFTNFLPPLSGQQPGQQQSQQQETSQPRTARATAKRDPFADLFN,not soluble
2,MAHHHHHHMNFVFIYIVLISFFNKSRCDNELSVKGSLTVANLKISSKNNQENGILFVNEESEYKIGLNERSELIISKKKKPLVTIDEHENLNFFNLDLSVKILNIQGILKIMNVNQFQMFVHEDFSNSSNTKGWIGDQFFNYTSSCGGINLLGGYGKLSKGEIYKTFENIPSHSQIRIKCNFHFIDNWDNQTAYMKITTDEKEEKYYVWTDTHSQINKQNSINICGNTTGESKFFSIIDIIIPHNSNKLIIYFGTNIQKDEPNLISWGISNFQIYLI,not soluble
3,MAHHHHHHMNPNQPPRRKTAFNEEFDVMQAIQEDRMAYHASIACHERCVHNYFFNNFYWREKTCMDNCLDKINQATVITNINYGKFEDVESKK,not soluble
4,MAHHHHHHMNTNGRSAYDMLARMSDEEDDDVPEDLELTFVPASKRREPASSHAVGHHAGNAVPSTLNSPTHSGPAVINPKPRAETVYEQERNAKVRQVLAEQQKTALGVVFSLDAFEAPSPGRYTLAGLQEATGTPAPSCSSAPYNREDQRRGFSQYRGRGGAEGGGRGGPGGGGGPRRYRMPNPNMSGEEQARYIRHRRNMAVIRNALREVDPETLEYMQVTQAPDQLPLNRNCEGFSKPYFSTDRGRGGVDAGGGRSTSSYRGRGGGGGMHGRGGRGFSPYSVGRGTGATRGDGLGRGAGGGCGRSAPFSPYS,not soluble
5,MAHHHHHHMPLPPVEDAPNSMARRHYLVERNRLRVKKYEPTRQAFEEETVKLSKQRVEQRVAMLNSWKSSVPLHTDTTRPLPGAARRQKEKDEPAAKHINLQILDEDAALKRERRALLRADILQQKKDREEYLAKWRANEKAYDSALLATNAEFARQMQEQERQAAVATKQYMDMMRASNLKELEAKRAKQREKEEADVAALRTMQENLRLKMEADERRAKDMKRLMQIENEENHSLFKKKQAEDKAREDAWIRTMMEHNAALAERERREAEQKRQQFKADFEDTIAKQKEFRRTHDYDEPQELIRKRNEEAAASAVLIRQEERLRNNEQRKQYREELMKQMREKYEWQLSHLDGV,not soluble
6,MAHHHHHHMPPLLTEVKPAGYRPQLRVCYLCGQQFGSASIGIHVPQCYQKKLSQWEVTDPAVRGPKPKHPDMVKWKGGNGASVEAINREQYQEFNSQLVACPHCARTFLPDRLPVHLRGCRGDGKVGVPSSKAKADGGGGSTPGGGKHKSEPRRAAGCRSLSPGPPLLPTCYLCGQQFGTASIGIHVPQCYEKKLAQWQNADPHSRGHPPKHPDTVNWRGRPGASPREQAEEQFQEFMNNLEECPNCSRRFLPERLVVHLRSCRPDNPPKPTSPRKAKTGGGARCPTPTTATTPADTAATKASIGGQTPRSEKQQRKQEPPTSSAGEDWIHPKRNRLTRHSTLPTESRVCPQCDAVEYDADAKFCRDCGHNFVPKPLSNSCQHCGERIPHGSRFCGTCGQPVQGASAHELTPGGPNKHASTVRRVVCPACEAISDADGNFCDNCGAALGDADLTPAPAAAGAAATPPSTRAGGSTEHKAVLYCAKCKETVEDTTAVFCEDCGGRLEALKVLTTKDDGPPLRADGTLPPSDVARLKVARASTPQRPSASEPAKTVTTPVASSVAPARPQTRNACTPIEEHTDEFPAYAEDDLVRVPCSHCGRQFASESLAKHERICCSQKKRRVFNATKQRLPEGATAAAKPSAGSQPAAPKRDWKAESESFRRALREARQVDQVLKAGGTAKDLPPPTYSTNPDYVPCPHCQRRFAPDVAARHIPRCANTVNRPKPPPRRR,soluble
7,MAHHHHHHMPRVQLFIDNGGYSVKALYLPASADTSNRSAATHASALTSSSTHGEAAATAATVAPAPKVLVVPNCVGAAVYAGTGIMGDQLDHLPHYHGLMVRRPVDRGFVVDGGLQARVWEHVLQHFSIESEEEVDVWLVVPFAAPKAVAQLLWLLCTRSFRFGSVTVVSSSFMSLIAYKFARGASAPSSAARKRPRSTVDTDAQESPGCSGSSATGGGMAIMVDVGFSATTVVPYVNYIPVYSSVVRLDVGGKVLTNRLKEYISFSQMNVIEDTWLINHVKEQCCVVARHPRRSLQRYAALWKGRTRDEVEAAAGALSTLRREDGGSGDGQASRSQRPGAPVAGVLTSPDVPIRYYLPTIPALLPLGVLEAELPSRLPKTSGVDAAALQHLLLCQERFLIPELLFTPADVGINQQGVAQAITEGIFQRGLLQHLTKLLRPLLLHNVCVYGGTASQPNFRDRLEAEVAAVAPQSPDCDADLDLKDSKRSSSSSRHGATEACADRTTCLSATPALPEFLLKAGGASTDLSLQPLLGAWCLLSATVDSGSNGGASQRELLRLRALVHERSGIELQHPPAGRVTVETFQHALERML,not soluble
8,MAHHHHHHMPSMDSLRTAVDNAPLLVNLLRLIRNARSPNYKDHEKGPVTFHFGGLSMRDTGSYEAAEELWRQSSWSSGALAPNAAGPFRGPLHLVVYLNHSPVEVWTLQDYREPATDHSVPRDFEQLEALNTLVRVLFAHLRCQDIYGVVLQSCVTATDDANNHFPASPNGNVSSPPHFPPPRNASLSRARTPHSPANHVSLRLFRSAEDCPTMPVHARRQYLWSSDDFVRVDVTMDRTWRHHSWVQPGTQAASPVLAAGDRERDTAVCAAGERSSPIRTASPGLRHFGSEGDTRSQSISPEAMGSLDKSSLPTPYLAPAATLALSSHLSRSPRTNLSPLMPGSRLSPAQGVSEFALPPADVSSPFDCDRSRQSRSSPPIMHSCVFASSHPAGGGGATYTAAVGAVNQVEDAVWLSNAEHVRRMGTLVCSRKQSPSASSSPVMGKKPRNSFISQKHEMGSLVPSISIGALSGIGFDRRLLSSDVDLEDLAAETASSGSSASVPNSAAMEQLVSLLGLCSKVKLQHVPSAPFGDLVLSLNLREVP,not soluble
9,MAHHHHHHMPSPQSLTGTPRSLQHAPLPAQVVRDALPLRRDVSDLLPVEQLRVLHVLTIAGMPRPHNTHSATISCRLSSPIMSATPNAYWRTCSMRCISVPSLCLEQTLPSSQSTAWMPREAADRSSVCGRSKCAETTATLTPSDISTHSTLPHKRAVPWEREVRRTVLA,not soluble
10,MAHHHHHHMPSSPFPTLPTRATQHHHHCSHTRVHQICPAVPSLSALSNILTVSAMSAKTAAAPSERSFVDRFVRSHAGAATAAGILEIGFFHPFDTIAKRLMANKGSIMRGSTGET,soluble
11,MAHHHHHHMQQRKTNKLFYPVAFLHFFLGEDNERRMFRRLSTSTLAAAAVRFYTPSESLKKLYTSDFDKTEFPLSIVPSDSVLFAKFLYKAAEPNNSFDAILKDFQTIAAASSSLPIFWERTAVVEDVAEFKKLSEPMFFTLVWMQKNGMLDLIPEVSEIYETYVNAKMKRIVAKIYVAPGKEGEVGEAKRVAQELHKEAKELDGYTLVFKTVVDRSIVTGFAVELAGQYVNRAEGHKSHAPAADEADYTTIPAPRLPKTVWEDNIETEVLCRYLESLAEYDAEEAKHGV,not soluble
12,MAHHHHHHMQSDARELNPGRADFWEHFYDQEDGRLRQKELHHRKAHEIVERGSLMNHYEWFMQYAMYEAALKACLRAVPTVLSKDGATRILHMGCGNSDFCDHVEGLLSDLHPVPSSSSRASEVLNVDICESIVAHLALHFPSRLYAVGNCCDLHVSSSPSMPFSSNAAWYSRDPALRLRKVLQSSVDVVFDKGTADALLSSFAGEYNPNMEAYMGEALKVLRPGGLLFLISINSEDVLSPYALSADDGLKSFHLAYTDVIELGAHDLRHLRVETLGSRYSCYGYAVVASAVAE,soluble
13,MAHHHHHHMQTNYNEIRNLFNYYIREYFYQKSKGSYFVHFKKPGILFMSLKCYKRKKMYYPCIYDWYFDNLNNVKKNKDIFQYKNEYNTKNIYSHKICTEKENLGKNNSYVETDNIYLNKSEENLQNIYKSSNLYYNINPIYLSKICLYNLNEYHILYSNNYYDAFTQYYYSLISYKMDVHNMKIFPNLKILISHIKNISNIINDEVIKNAYIYLIKQRNIMNEEYLKNVFRNIYTTMLHNSSLYLFVDNHDQFIMILKIIKTDDIKSMFESAIPYPYYLIVDENINIYNLQSFNIYINSILNQRMQYNYPYNEKEKGSILNHYNNDKMYMTYNNNINQSKDIKIEKQTEQNEKGFNSMLDTDKGVYEKNIIKDKNDKVYFFKFIKIFDMKPNYRFKQKK,not soluble
14,MAHHHHHHMRCHVMGPSGHKSEYHCATLLGNWQEERRSFGFVDPAREPLSYMTVYKDSFRGTKTDEELANAKPPSCFHENALPELLFYHNEITNPPKNLLTVNELSYTNAKGGEEVNTLHDILHKEGVSKKRDKTIAIRRELGFIGYGAPHEGSLLASKGATATPLDYTMRCGTTTDQNFLESTRGGCYKPPVIPAIGRMQEKQRLLTTKNVTVDATGEYLKDNIDEYPATSSECWGMFMKFTDNMKGKKLRECYED,not soluble
15,MAHHHHHHMRLRSPCGVKGIAADALVDLVQSCYPSATVLFTSVANNVAAADNSELRISSSLDAWQAKLHTRRAWRQGLSVDTPGFQRILARRHIVPARSAEAAASSWWALLYAADATNRPRVALPRQPSQSLPPSHIAHPILCCPDAIVYIGGVEVRDVTQVVAPTLVDAVTRVEAPHSTVGAASATHRAERQAPSYCRRRVDWPTVWADKRCAMRGADLLELSLAVPSDLGHRHADVRERVLVSIANPDVTLADLQRQPHAGRRGPLRTSFGFSLPCVQAALPAAVIRAVRVLRRWQRDVAHCIPSTSAFWVSSIGHLLETSVGDAASPLTQWAEACTRQEQELGMSETQMRHLFAIVQPDSDQTSTRVPLPEDATKLLTFLLTSTVLQLACTSPLEAWNGTNYFLPAERFDGTTDAEVLLRTMRSVAGTHLTFPIFSSLYGSPCGAEQGPLSQSSP,not soluble
16,MAHHHHHHMRRSALRGAARGNDNGAICRRYRDTSLCVVTSLTPSVHGGGSTSVVASSSSLSCPPRPSACYATAMHMSARHRLTNASILSNIKSMANEKDDLTSKLVYLRRRQEDAIAFAVKEKEMLAEKAKRQLAMEEEKLKVEARIEALISEAAQLGGPAAAQRMRDEIAKDKTRYVRSVDAFGDKTVRLQHTFAGLADNRIIHWWEYAYWNYIRYFFTQELLIAKDRFGNKFTVTWQFLKGREEQRRMYRKDSNKKHQPYGALATDERLWERWMRGHRGDPPSVAEEEHLRDYKKQFFGAMVLEDEEVEDALMRLMAHMNRASQTFQELDEDQVYGDAHRVAKPLRETERKPGEEMSARQKQKGATWTLGFARGDLFYNEEETQVMRTEMGHLFRNMEWQELEYKRQVRMNKQQPPHGKPPEGTTDPNTPDGDPMNHYWERTDLGIPYHDAVPDLTTPELERMRIESSQLEDERLAIRKELGLTDLGDIREGREPIKRDHAPFQPPPVSQRWKPKCWEESWGTGSGMKY,not soluble
